Laboratory results taken from the supplement of paper PMC10065799, “High-throughput profiling of sequence recognition by tyrosine kinases and SH2 domains using bacterial peptide display” (eLife, 2023).

Tests used:
AncSZ = experiment: phosphorylation enrichment, bacterial display (enrichment ratio); higher = better substrate or ligand; peptides without Tyr show the background
EPHB1 = EPHB1 (UniProt P54762); experiment: as above
EPHB2 = EPHB2 (UniProt P29323); experiment: as above
FGFR1 = FGFR1 (UniProt P11362); experiment: as above
FGFR3 = FGFR3 (UniProt P22607); experiment: as above
Sequence of FGFR3 (P22607 whole entry, looked up): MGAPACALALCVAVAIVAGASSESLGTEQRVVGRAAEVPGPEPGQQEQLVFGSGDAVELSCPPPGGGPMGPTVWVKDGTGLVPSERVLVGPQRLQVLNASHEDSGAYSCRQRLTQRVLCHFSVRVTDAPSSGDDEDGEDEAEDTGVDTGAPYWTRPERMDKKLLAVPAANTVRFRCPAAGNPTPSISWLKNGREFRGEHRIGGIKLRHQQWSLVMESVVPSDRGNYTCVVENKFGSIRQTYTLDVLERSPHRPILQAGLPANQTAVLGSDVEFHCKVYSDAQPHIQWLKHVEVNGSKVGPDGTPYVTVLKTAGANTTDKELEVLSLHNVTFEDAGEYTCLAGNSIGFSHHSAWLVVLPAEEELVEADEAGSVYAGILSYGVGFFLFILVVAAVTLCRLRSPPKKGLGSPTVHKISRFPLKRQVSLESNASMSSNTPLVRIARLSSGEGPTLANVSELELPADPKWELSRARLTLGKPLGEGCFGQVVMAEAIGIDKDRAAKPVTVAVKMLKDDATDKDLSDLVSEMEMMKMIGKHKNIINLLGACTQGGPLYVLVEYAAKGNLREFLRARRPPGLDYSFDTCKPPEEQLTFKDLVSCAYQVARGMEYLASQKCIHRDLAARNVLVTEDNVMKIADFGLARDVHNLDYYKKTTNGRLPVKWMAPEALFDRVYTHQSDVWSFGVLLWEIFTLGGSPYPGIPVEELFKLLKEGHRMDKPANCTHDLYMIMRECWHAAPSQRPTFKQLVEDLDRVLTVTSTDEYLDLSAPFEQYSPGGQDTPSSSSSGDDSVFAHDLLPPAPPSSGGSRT

Fer (mouse) = experiment: as above
Fes = Fes (UniProt P07332); experiment: as above
Sequence of Fes (P07332 whole entry, looked up): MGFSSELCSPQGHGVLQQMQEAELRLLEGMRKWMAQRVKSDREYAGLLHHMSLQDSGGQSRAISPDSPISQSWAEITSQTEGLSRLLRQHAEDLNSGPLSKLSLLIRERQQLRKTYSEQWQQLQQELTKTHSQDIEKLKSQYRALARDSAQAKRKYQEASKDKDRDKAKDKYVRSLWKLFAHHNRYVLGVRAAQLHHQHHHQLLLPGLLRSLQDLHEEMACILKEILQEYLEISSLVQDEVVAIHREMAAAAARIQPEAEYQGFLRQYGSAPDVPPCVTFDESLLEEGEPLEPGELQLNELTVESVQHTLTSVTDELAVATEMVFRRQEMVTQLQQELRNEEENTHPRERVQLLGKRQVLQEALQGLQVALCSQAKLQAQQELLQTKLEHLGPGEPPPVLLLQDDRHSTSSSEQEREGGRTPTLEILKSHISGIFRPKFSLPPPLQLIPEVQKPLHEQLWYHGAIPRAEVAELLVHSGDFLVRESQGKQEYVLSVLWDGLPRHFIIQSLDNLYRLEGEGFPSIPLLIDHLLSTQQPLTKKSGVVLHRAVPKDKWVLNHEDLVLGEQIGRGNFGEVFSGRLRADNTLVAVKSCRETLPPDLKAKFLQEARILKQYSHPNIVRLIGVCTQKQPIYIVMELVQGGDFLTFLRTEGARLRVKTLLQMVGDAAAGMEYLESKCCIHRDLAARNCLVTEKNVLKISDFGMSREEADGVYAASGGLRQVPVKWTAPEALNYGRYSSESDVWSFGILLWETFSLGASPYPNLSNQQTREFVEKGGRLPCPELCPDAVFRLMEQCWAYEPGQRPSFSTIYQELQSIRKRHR

Fyn = Fyn (UniProt P06241); experiment: as above
Sequence of Fyn (P06241 whole entry, looked up): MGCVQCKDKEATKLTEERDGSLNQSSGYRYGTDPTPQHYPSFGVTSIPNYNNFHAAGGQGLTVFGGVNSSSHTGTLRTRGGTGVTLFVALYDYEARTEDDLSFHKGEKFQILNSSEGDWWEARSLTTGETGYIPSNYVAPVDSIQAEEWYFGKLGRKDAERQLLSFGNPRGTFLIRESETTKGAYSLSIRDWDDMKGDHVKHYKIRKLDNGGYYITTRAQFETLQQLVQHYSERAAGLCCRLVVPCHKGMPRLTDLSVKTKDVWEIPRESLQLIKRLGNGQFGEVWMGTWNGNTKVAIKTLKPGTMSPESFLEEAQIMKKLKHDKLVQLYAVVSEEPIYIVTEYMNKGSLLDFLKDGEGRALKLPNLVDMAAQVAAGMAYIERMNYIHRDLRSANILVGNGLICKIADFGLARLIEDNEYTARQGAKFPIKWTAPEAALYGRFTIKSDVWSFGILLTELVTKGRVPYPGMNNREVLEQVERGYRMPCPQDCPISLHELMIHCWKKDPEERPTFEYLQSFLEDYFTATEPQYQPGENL

Hck = Hck (UniProt P08631); experiment: as above
Sequence of Hck (P08631 whole entry, looked up): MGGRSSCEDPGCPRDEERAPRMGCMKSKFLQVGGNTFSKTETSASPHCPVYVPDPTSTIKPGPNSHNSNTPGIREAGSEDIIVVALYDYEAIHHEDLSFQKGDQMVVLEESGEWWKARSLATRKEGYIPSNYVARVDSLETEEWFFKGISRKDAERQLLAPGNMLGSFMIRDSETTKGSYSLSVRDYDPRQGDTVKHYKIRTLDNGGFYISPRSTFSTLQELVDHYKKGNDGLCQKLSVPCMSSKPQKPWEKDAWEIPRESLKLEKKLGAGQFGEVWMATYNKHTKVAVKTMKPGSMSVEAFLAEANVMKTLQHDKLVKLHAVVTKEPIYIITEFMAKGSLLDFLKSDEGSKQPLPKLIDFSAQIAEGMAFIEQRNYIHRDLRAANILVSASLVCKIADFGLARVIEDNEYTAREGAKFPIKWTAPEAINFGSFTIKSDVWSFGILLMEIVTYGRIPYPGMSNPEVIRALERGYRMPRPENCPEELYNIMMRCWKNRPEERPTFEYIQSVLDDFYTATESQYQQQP

Jak2 = Jak2 (UniProt O60674); experiment: as above
Sequence of Jak2 (O60674 whole entry, looked up): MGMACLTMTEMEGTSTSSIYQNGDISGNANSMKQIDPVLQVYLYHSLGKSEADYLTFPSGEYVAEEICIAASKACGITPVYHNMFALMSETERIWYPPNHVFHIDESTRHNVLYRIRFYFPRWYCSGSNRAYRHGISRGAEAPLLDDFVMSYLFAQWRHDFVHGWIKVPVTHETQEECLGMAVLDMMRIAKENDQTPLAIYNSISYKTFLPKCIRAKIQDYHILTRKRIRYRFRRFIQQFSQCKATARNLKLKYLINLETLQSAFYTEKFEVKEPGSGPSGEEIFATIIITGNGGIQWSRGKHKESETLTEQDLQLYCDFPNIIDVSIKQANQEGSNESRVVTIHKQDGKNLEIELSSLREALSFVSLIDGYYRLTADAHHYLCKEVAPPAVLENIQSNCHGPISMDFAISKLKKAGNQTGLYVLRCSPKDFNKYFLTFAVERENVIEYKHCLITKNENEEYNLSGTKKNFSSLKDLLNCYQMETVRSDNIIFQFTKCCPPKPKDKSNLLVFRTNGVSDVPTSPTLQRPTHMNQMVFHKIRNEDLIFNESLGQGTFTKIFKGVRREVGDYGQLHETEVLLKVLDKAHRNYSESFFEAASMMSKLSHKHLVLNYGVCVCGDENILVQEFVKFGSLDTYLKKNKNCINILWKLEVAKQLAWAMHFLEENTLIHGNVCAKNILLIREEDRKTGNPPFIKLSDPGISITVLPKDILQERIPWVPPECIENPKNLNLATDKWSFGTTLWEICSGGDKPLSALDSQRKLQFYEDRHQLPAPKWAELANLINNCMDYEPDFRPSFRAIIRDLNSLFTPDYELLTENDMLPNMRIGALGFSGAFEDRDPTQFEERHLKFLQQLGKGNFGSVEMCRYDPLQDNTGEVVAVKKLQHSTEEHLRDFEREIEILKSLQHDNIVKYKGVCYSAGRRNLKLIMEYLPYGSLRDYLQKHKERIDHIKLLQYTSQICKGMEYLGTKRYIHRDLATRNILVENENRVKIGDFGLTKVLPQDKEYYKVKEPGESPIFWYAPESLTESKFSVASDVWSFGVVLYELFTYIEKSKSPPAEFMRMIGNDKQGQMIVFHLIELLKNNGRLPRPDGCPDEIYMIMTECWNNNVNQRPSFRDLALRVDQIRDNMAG

MERTK = MERTK (UniProt Q12866); experiment: as above
Sequence of MERTK (Q12866 whole entry, looked up): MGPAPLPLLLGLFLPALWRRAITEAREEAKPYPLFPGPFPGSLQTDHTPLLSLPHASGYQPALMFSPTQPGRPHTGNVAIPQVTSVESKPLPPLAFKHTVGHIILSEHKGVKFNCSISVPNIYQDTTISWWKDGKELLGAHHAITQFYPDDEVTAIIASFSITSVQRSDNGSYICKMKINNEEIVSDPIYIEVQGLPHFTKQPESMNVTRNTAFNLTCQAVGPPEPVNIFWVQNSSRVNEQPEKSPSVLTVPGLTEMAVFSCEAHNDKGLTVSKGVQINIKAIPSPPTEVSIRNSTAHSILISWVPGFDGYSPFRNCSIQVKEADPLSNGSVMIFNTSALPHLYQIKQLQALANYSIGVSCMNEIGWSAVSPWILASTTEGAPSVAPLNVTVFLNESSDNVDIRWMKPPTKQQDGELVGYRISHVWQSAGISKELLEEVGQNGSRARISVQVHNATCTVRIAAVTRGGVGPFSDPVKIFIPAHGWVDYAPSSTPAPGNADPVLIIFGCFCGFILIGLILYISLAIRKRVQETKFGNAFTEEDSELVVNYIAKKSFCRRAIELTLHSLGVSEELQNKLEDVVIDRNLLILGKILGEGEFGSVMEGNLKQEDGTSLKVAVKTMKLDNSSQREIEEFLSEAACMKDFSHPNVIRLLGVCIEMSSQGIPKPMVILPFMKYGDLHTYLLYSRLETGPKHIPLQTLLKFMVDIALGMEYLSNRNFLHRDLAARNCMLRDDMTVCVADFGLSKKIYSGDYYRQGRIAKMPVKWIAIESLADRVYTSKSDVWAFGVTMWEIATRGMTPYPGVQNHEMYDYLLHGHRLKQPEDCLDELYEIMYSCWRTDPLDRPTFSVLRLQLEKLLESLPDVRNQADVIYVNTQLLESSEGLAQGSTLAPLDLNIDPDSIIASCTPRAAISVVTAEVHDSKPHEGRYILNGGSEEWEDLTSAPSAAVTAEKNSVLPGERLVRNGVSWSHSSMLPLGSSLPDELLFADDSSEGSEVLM

c-Abl (mouse) = experiment: as above
c-Src = experiment: as above
Grb2 SH2 = Grb2 SH2 (UniProt P62993); experiment: SH2 binding enrichment of the phosphorylated peptide, bacterial display (enrichment ratio); higher = better substrate or ligand; peptides without Tyr show the background
Sequence of Grb2 SH2 (P62993 whole entry, looked up): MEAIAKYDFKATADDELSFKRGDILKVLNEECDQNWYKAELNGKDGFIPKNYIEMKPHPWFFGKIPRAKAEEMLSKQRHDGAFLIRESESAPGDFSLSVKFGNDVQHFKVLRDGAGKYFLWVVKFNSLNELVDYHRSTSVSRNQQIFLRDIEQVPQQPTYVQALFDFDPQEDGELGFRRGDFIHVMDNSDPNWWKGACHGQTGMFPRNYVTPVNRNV

SHP2-C SH2 = experiment: as above
c-Src SH2 = experiment: as above
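Throughout, for SH2 binding enrichment of the phosphorylated peptide, bacterial display: peptide library displayed on the E. coli surface as eCPX fusions, selected cells deep-sequenced, score is each peptide's frequency after selection divided by its frequency in the input.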
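Throughout, for phosphorylation enrichment, bacterial display: 11-residue human phosphosite peptides and single-mutation variants displayed on the E. coli surface, counted by deep sequencing, each peptide's frequency after selection divided by its frequency in the unselected input library; frequency after pTyr selection over input frequency; kinase dosed for 20-30% of maximal phosphorylation in three min.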

Row | Sequence | phosphorylation enrichment (AncSZ) | phosphorylation enrichment (EPHB1) | phosphorylation enrichment (EPHB2) | phosphorylation enrichment (FGFR1) | phosphorylation enrichment (FGFR3) | phosphorylation enrichment (Fer (mouse)) | phosphorylation enrichment (Fes) | phosphorylation enrichment (Fyn) | phosphorylation enrichment (Hck) | phosphorylation enrichment (Jak2) | phosphorylation enrichment (MERTK) | phosphorylation enrichment (c-Abl (mouse)) | phosphorylation enrichment (c-Src) | SH2 binding enrichment (Grb2 SH2) | SH2 binding enrichment (SHP2-C SH2) | SH2 binding enrichment (c-Src SH2)
1 | NHYKIHNLCAE [PTEN_Y68_Y68H] | 0.593 | 0.56 | 0.614 | 0.493 | 0.58 | 0.463 | 0.823 | 0.421 | 0.476 | 0.706 | 0.435 | 0.696 | 0.492 | 1.08 | 1.02 | 0.554
2 | RRERPYGGGGG [FUS_Y526] | 0.563 | 0.453 | 0.554 | 0.554 | 0.523 | 0.46 | 0.467 | 0.471 | 0.414 | 0.42 | 0.375 | 0.284 | 0.485 | 0.703 | 0.478 | 0.436
3 | FIGRIYLYLTK [GARS1_Y414] | 1.64 | 0.556 | 0.39 | 0.487 | 0.627 | 0.535 | 1.12 | 0.445 | 0.416 | 1.14 | 0.538 | 1.18 | 0.469 | 1.05 | 1.25 | 0.74
4 | AGQKDYDRLRP [RAC3_Y64_E62K] | 0.662 | 0.501 | 0.543 | 0.462 | 0.572 | 0.787 | 0.761 | 0.52 | 0.47 | 0.546 | 0.358 | 0.627 | 0.36 | 0.953 | 0.688 | 0.63
5 | MIRSTYALGGL [CPS1_Y590_A589T] | 0.63 | 0.4 | 0.521 | 0.774 | 0.486 | 0.489 | 0.693 | 0.466 | 0.487 | 0.73 | 0.488 | 0.498 | 0.546 | 0.699 | 0.626 | 0.439
6 | GTATTYLCGVK [ALPL_Y117_A116T] | 0.914 | 0.5 | 0.8 | 0.595 | 0.758 | 0.495 | 1.13 | 0.479 | 0.582 | 0.946 | 0.493 | 0.811 | 0.472 | 0.67 | 1.15 | 0.483
7 | HLVSEYQQYQD [TUBB3_Y422_D417H] | 1.78 | 1.07 | 1.11 | 0.868 | 1.05 | 0.72 | 1.61 | 0.652 | 1.21 | 1.29 | 0.482 | 0.98 | 0.939 | 0.956 | 0.605 | 1.02
8 | DEEEEYEFMNR [ERBB3_Y1197_D1194E_YF] | 1.16 | 0.62 | 0.76 | 0.572 | 0.779 | 0.485 | 1.07 | 0.512 | 0.522 | 0.903 | 0.462 | 1.1 | 0.527 | 0.946 | 0.747 | 0.637
9 | ERLWDCGMSSS [F8_Y1728_Y1728C] | 0.803 | 0.535 | 0.52 | 0.553 | 0.537 | 0.371 | 0.771 | 0.517 | 0.451 | 0.74 | 0.387 | 0.49 | 0.388 | 1.15 | 0.9 | 0.634
10 | FSKRIYKGMVA [PCDH15_Y931] | 0.426 | 0.231 | 0.5 | 0.262 | 0.367 | 0.369 | 0.534 | 0.392 | 0.352 | 0.402 | 0.362 | 0.332 | 0.338 | 0.773 | 0.555 | 0.462
11 | YQASYYRRGDR [LTK_Y677_R673Q] | 0.685 | 0.453 | 0.399 | 0.411 | 0.526 | 0.403 | 0.713 | 0.492 | 0.57 | 0.635 | 0.523 | 0.641 | 0.527 | 0.684 | 0.442 | 0.418
12 | AHAGEYGAVAL [HBA1_Y25_E28V] | 0.598 | 0.346 | 0.582 | 0.421 | 0.509 | 0.672 | 0.594 | 5.54 | 3.27 | 0.511 | 0.389 | 0.517 | 2.95 | 0.88 | 0.6 | 0.486
13 | EREYKYGAHNH [OAT_Y50_Y55H] | 0.525 | 0.391 | 0.509 | 0.485 | 0.463 | 0.364 | 0.603 | 0.406 | 0.44 | 0.591 | 0.496 | 0.483 | 0.415 | 0.981 | 0.743 | 0.708
14 | ALPGEYIPTVF [RAC1_Y32_F28L] | 1.1 | 0.585 | 0.595 | 0.573 | 0.697 | 0.46 | 1.16 | 0.612 | 0.492 | 1.12 | 0.426 | 0.7 | 0.514 | 0.697 | 0.643 | 0.509
15 | SLGKGYYDGGC [MC4R_Y35_S36Y] | 0.96 | 0.65 | 0.591 | 0.635 | 0.68 | 0.648 | 1.33 | 0.611 | 0.552 | 1.03 | 0.514 | 0.841 | 0.543 | 0.741 | 0.59 | 0.727
16 | QQLQGYIPSNF [FRK_Y99_YF] | 1.11 | 0.763 | 0.881 | 0.884 | 1.09 | 0.679 | 1.29 | 0.938 | 0.647 | 0.981 | 0.878 | 0.899 | 0.546 | 0.674 | 0.519 | 0.47
17 | ARQEEYSAMRD [KRAS_Y64_G60R] | 0.962 | 0.508 | 0.563 | 0.518 | 0.584 | 0.387 | 0.902 | 0.429 | 0.488 | 0.896 | 0.497 | 0.837 | 0.497 | 0.824 | 0.729 | 0.804

Row | Sequence | phosphorylation enrichment (AncSZ) | phosphorylation enrichment (EPHB1) | phosphorylation enrichment (EPHB2) | phosphorylation enrichment (FGFR1) | phosphorylation enrichment (FGFR3) | phosphorylation enrichment (Fer (mouse)) | phosphorylation enrichment (Fes) | phosphorylation enrichment (Fyn) | phosphorylation enrichment (Hck) | phosphorylation enrichment (Jak2) | phosphorylation enrichment (MERTK) | phosphorylation enrichment (c-Abl (mouse)) | phosphorylation enrichment (c-Src) | SH2 binding enrichment (Grb2 SH2) | SH2 binding enrichment (SHP2-C SH2) | SH2 binding enrichment (c-Src SH2)
18 | LPKEQYLCTKE [AFG3L2_Y614_Y616C] | 0.858 | 0.463 | 0.428 | 0.482 | 0.653 | 0.562 | 1.01 | 0.466 | 0.409 | 0.868 | 0.409 | 0.723 | 0.427 | 0.883 | 0.533 | 0.584
19 | PESIMYRKFTT [NTRK3_Y744] | 3.03 | 0.534 | 0.552 | 0.384 | 0.667 | 0.485 | 0.789 | 0.67 | 0.517 | 0.666 | 0.616 | 0.777 | 0.488 | 1.05 | 0.494 | 0.6
20 | LTDLRYKVSGL | 0.581 | 0.379 | 0.479 | 0.496 | 0.437 | 0.404 | 0.725 | 0.352 | 0.377 | 0.575 | 0.427 | 0.565 | 0.46 | 0.761 | 0.498 | 0.397
21 | IGKDLYANNVL [ACTA2_Y296_R292G] | 1.2 | 0.679 | 0.634 | 0.45 | 0.64 | 0.619 | 1.15 | 0.526 | 0.775 | 1.03 | 0.556 | 0.77 | 0.55 | 0.844 | 0.574 | 0.535
22 | PIPIKYKAMKK [MYD88_Y257_L252P] | 0.677 | 0.407 | 0.495 | 0.383 | 0.858 | 0.336 | 0.72 | 0.5 | 0.582 | 0.665 | 0.382 | 0.642 | 0.534 | 1.32 | 1.1 | 0.822
23 | ISGGGYRARPA [FGB_Y71] | 0.485 | 0.402 | 0.308 | 0.345 | 0.404 | 0.312 | 0.665 | 0.416 | 0.404 | 0.603 | 0.333 | 0.515 | 0.408 | 0.771 | 0.552 | 0.392
24 | YQKDVYNIPPS [NEDD9_Y177_D178N] | 0.81 | 0.456 | 0.532 | 0.623 | 0.529 | 0.472 | 0.702 | 4.4 | 2.34 | 0.805 | 1.64 | 0.584 | 3.29 | 0.808 | 0.6 | 0.495
25 | WQQQSYLDSGI [CTNNB1_Y30] | 0.75 | 0.489 | 0.433 | 0.479 | 0.597 | 0.428 | 0.847 | 0.388 | 0.407 | 0.758 | 0.418 | 0.568 | 0.38 | 0.726 | 0.649 | 0.571
26 | FCIDHYLGKEM [G6PD_Y202_R198C_YF] | 0.725 | 0.581 | 0.505 | 0.397 | 0.569 | 0.633 | 0.901 | 0.657 | 0.43 | 0.63 | 0.375 | 0.49 | 0.394 | 0.836 | 0.969 | 0.735
27 | IPGVEYLVSII [TNC_Y1775] | 1.02 | 0.667 | 0.574 | 0.552 | 0.723 | 0.445 | 1.14 | 0.432 | 0.491 | 1.19 | 0.409 | 0.664 | 0.5 | 1 | 0.944 | 0.648
28 | YTFNSYYMHWV [IGHV1-46_Y51_T49N] | 1.77 | 4.7 | 4.46 | 6.62 | 5.38 | 5.35 | 1.6 | 1.54 | 2.52 | 6.39 | 6.9 | 1.1 | 2.06 | 1.12 | 0.951 | 0.839
29 | VITDFYVDMKF [MPP4_Y567_YF] | 1.23 | 1.31 | 0.824 | 1.42 | 1.36 | 0.925 | 1.32 | 0.457 | 0.624 | 1.27 | 0.52 | 0.727 | 0.503 | 0.864 | 0.577 | 0.607
30 | NKEAICSGYIR [SMCHD1_Y283_Y283C] | 0.794 | 0.52 | 0.547 | 0.509 | 0.71 | 0.446 | 0.903 | 0.369 | 0.424 | 0.875 | 0.42 | 1.3 | 0.399 | 0.761 | 0.462 | 0.436
31 | EGDGVYTLNNK [HP_Y125_E130K] | 0.86 | 0.601 | 0.378 | 0.48 | 0.586 | 0.455 | 0.857 | 7.02 | 3.23 | 0.749 | 0.354 | 0.62 | 4.5 | 1.08 | 0.426 | 0.377
32 | VIKDKYPKARF [APTX_Y209_YF] | 0.455 | 0.339 | 0.297 | 0.425 | 0.504 | 0.288 | 0.672 | 0.294 | 0.332 | 0.772 | 0.374 | 0.646 | 0.408 | 1.15 | 1.25 | 1.04
33 | SLDLSYYPTSS [EMD_Y181] | 1.42 | 0.614 | 0.566 | 2.62 | 2.18 | 0.507 | 0.947 | 0.515 | 0.617 | 4.37 | 0.661 | 0.803 | 0.583 | 0.921 | 0.819 | 1.27
